Data on three molecules can be found in publication PMC7962585 (Cell, 2021).

For this assay, the target named is full-length wild-type SARS-CoV-2 S (Severe acute respiratory syndrome …, UniProt P0DTC2). The assay is described as follows: flow cytometry on cells.

B1: S2M28 IgG1 (antibody, V domains shown)
VH: EVQLVESGGGVVQPGRSLRLSCAASGFTFSSYGMHWVRQAPGKGLEWVTVIWYDGSNRYYADSVKGRFTISRDNSKNTLYLQMDSLRAEDTAVYYCARAVAGEWYFDYWGQGTLVTVSS
VL: SYELTQPPSVSVSPGQTARITCSGDALAKHYAYWYRQKPGQAPVLVIYKDSERPSGIPERFSGSSSGTTVTLTISGVQAEDEADYYCQSADSIGSSWVFGGGTKLTVL
On to B1, for which the binding result is recorded as “binds”.

B2: S2L28 IgG1 (antibody, V domains shown)
VH: EVQLVESGGGLVNPGGSLRLSCAASGFTFSDYTIHWVRQAPGKGLEWVSSISSSSNYIYYADSVKGRFTISRDNAKNSLSLQMNSLRAEDTAVYYCARDGNAYKWLLAENVRFDYWGQGTLVTVSS
VL: VTQPASVSGSPGQSITISCTGTSSDVGGYNYVSWYQQHPGKAPKLMIYDVSDRPSGVSNRFSGSKSGNTASLTISGLQAEDEADYYCSSYTSSSTPNWVFGGGTKLT
As to B2, the binding result is recorded as “binds”.

B3: S2X333 IgG1 (antibody, V domains shown)
VH: VQLVESGGGVVQPGRSLRLSCAASGFTFSNYGMHWVRQAPGKGLEWVAVIWYDGSNKFYADSVKGRFTISRDNSKNSLYLQMNSLRAEDTAVYFCARAFPDSSSWSGFTIDYWGQGTLVTV
VL: YELTQPPSVSTARITCGGNNIERKSVHWCQQKPGQAPALVVYDDSDRPSGIPERFSGSNSGNTATLTISRVEAGDEADYYCQVWDSGSDQVIFGGGTKLT
Regarding B3, the binding result is recorded as “binds”.
